From paper PMC9952896

Key:
HSP-CGFP [GFP: P42212] = test: split reporter (BiFC, NanoBiT); split-GFP reassembly competition assay, GFP variant sg100: E. coli T7 cells co-transformed with the NGFP plasmid, the CGFP plasmid and p17Tet with a competitor or p17Tet-stop; 0.5 mM IPTG and 2% arabinose, overnight to 72 h at 17 °C; fluorescence (arbitrary units) divided by OD600 of cells resuspended in PBS, triplicates
[1] = target: XD-CGFP (not His-tagged) (measles virus | not stated) (UniProt P03422); test: as above
[2] = target: HSP (hsp70) (Homo sapiens) (UniProt P0DMV8); conditions: cited from earlier work
Chain of UniProt P0DMV8 (P0DMV8 2-641): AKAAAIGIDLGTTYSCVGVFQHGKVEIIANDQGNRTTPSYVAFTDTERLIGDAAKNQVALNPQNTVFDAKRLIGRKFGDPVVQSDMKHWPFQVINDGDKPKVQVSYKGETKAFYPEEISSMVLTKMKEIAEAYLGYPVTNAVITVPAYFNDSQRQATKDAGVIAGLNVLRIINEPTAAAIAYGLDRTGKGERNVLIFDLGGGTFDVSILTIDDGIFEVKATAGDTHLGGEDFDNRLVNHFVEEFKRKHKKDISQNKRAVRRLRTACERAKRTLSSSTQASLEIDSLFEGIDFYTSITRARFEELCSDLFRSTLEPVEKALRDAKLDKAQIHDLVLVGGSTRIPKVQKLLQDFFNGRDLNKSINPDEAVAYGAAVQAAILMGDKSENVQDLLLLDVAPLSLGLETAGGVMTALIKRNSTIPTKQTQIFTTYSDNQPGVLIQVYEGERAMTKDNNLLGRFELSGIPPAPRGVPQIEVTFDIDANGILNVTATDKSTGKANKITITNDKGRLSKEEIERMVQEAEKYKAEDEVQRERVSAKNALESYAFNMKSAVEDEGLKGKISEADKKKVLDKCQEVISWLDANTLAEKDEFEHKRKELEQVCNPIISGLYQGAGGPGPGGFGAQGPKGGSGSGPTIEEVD

Substance: NGFP alone (His-NGFP, from the construct NGFP-stop) (from UniProt P42212 1-157) (domain or fragment)
- fluorescence to OD600 ratio (arbitrary units/OD600) (HSP-CGFP [GFP: P42212]): 200
- fluorescence to OD600 ratio (arbitrary units/OD600) [1]: 200

Substance: Nucleoprotein NTAIL NTAIL (from UniProt P35972)
- Kd [2]: 70 µM

Substance: NGFP-471 (His-NGFP-471) (from UniProt P42212 1-157; P04851 471-525) (domain or fragment)
- fluorescence signal (fluorescence/OD600) (arbitrary units/OD600) (HSP-CGFP [GFP: P42212]): 300
